Laboratory results from patent US20070117770, “Human ribosomal DNA (rDNA) and ribosomal RNA (rRNA) nucleic acids and uses thereof” (Cylene Pharmaceuticals, Inc., published 2007).

Assays:
[1] = molecular target: T1, Nucleolin (MBP fusion, lacking N-terminal acidic stretches domain) (Homo sapiens, UniProt P19338 P19338:284-710); assay: filter; apparent Kd; Bmax 41%; 12.5 mM Tris-HCl pH 7.6, 60 mM KCl, 1 mM MgCl2, ambient temperature; conditions: label: 32P; G4 mixed
Description: (§1) The assay also was conducted in a filter-binding format. In such forms of the assay, 0.2 nM of ³²P-labeled quadruplexes were incubated in 50 uL of the binding buffer (12.5 mM Tris-HCl, pH 7.6, 60 mM KCl, 1 mM MgCl2, 0.1 mM EDTA, 5% glycerol, 0.1 mg/mL BSA) for 10 min at 85 C and then for 10 min on ice and mixed with another 50 uL of binding buffer containing increasing amounts of recombinant protein Nucleolin. The protein-quadruplex mixtures were incubated for 30 min at ambient temperature and filtered through mixed cellulose ester membrane filters (Millipore) with gentle suction. The filters were washed twice with […] of binding buffer, dried and OptiPhase ‘SuperMix’ scintillation cocktail (Perkin Elmer) was added to the wells. Radioactivity was assayed with MicroBeta scintillation counter (Perkin Elmer). Binding curves were constructed and apparent Kd's and Bmax's for the complexes were calculated using the GraphPad Prizm software program (GraphPad Software). […]

[2] = molecular target: T1, Nucleolin (MBP fusion, lacking …); assay: filter; Bmax 66%; 60 mM KCl, 1 mM MgCl2; conditions: label: 32P; G4 mixed
Description: as §1

[3] = molecular target: T1, Nucleolin (MBP fusion, lacking …); assay: filter; Bmax 100%; sequence taken from Example 6 table; conditions: label: 32P; G4 complex
Description: as §1

[4] = molecular target: T1, Nucleolin (MBP fusion, lacking …); assay: filter; Bmax 32%; 60 mM KCl, 1 mM MgCl2; conditions: label: 32P
Description: as §1

[5] = molecular target: T1, Nucleolin (MBP fusion, lacking …); assay: filter; Bmax 37%; 60 mM KCl, 1 mM MgCl2; conditions: label: 32P; G4 parallel
Description: as §1

[6] = molecular target: T1, Nucleolin (MBP fusion, lacking …); assay: filter; 60 mM KCl, 1 mM MgCl2; conditions: label: 32P
Description: The assay also was conducted in a filter-binding format. In such forms of the assay, 0.2 nM of ³²P-labeled quadruplexes were incubated in 50 uL of the binding buffer (12.5 mM Tris-HCl, pH 7.6, 60 mM KCl, 1 mM MgCl2, 0.1 mM EDTA, 5% glycerol, 0.1 mg/mL BSA) for 10 min at 85 C and then for 10 min on ice and mixed with another 50 uL of binding buffer containing increasing amounts of recombinant protein Nucleolin. The protein-quadruplex mixtures were incubated for 30 min at ambient temperature and filtered through mixed cellulose ester membrane filters (Millipore) with gentle suction. The filters were washed twice with […] of binding buffer, dried and OptiPhase ‘SuperMix’ scintillation cocktail (Perkin Elmer) was added to the wells. Radioactivity was assayed with MicroBeta scintillation counter (Perkin Elmer). Binding curves were constructed and apparent Kd's and Bmax's for the complexes were calculated using the GraphPad Prizm software program (GraphPad Software). In the following table, the nucleic acid ligand is designated in the first column using the nomenclature described herein; the second column provides the nucleotide sequence of the nucleic acid ligand; the third column is the conformation of the ligand as determined by circular dichroism (M is mixed, P is parallel, A is antiparallel, C is complex, SS is single-stranded and ND is not determined); the fourth column is the dissociation constant determined by the filter binding assay of nucleolin protein and the nucleic acid ligand; the fifth column is a Bmax constant determined by the filter binding assay, which is the percent of active nucleic acid ligand in each assay; and the sixth column presents the concentration of Compound A-1 required to dissociate half of the complexed nucleic acid ligand and nucleolin protein, as determined by the EMSA assay described above.

[7] = molecular target: T1, Nucleolin (MBP fusion, lacking …); assay: filter; Bmax 50%; 60 mM KCl, 1 mM MgCl2; conditions: label: 32P
Description: as §1

[8] = molecular target: T1, Nucleolin (MBP fusion, lacking …); assay: filter; Bmax 55%; 60 mM KCl, 1 mM MgCl2; conditions: label: 32P; G4 motif, CD not determined
Description: as §1

[9] = molecular target: T1, Nucleolin (MBP fusion, lacking …); assay: filter; Bmax 21%; 60 mM KCl, 1 mM MgCl2; conditions: label: 32P; G4 motif, CD not determined
Description: as §1

[10] = molecular target: T1, Nucleolin (MBP fusion, lacking …); assay: filter; Bmax 20%; 60 mM KCl, 1 mM MgCl2; conditions: label: 32P; G4 motif, CD not determined
Description: as §1

[11] = molecular target: T1, Nucleolin (MBP fusion, lacking …); assay: filter; Bmax 84%; 60 mM KCl, 1 mM MgCl2; conditions: label: 32P; G4 mixed
Description: as §1

[12] = molecular target: T1, Nucleolin (MBP fusion, lacking …); assay: filter; Bmax 16%; 60 mM KCl, 1 mM MgCl2; conditions: label: 32P; G4 motif, CD not determined
Description: as §1

[13] = molecular target: T1, Nucleolin (MBP fusion, lacking …); assay: filter; Bmax 53%; 60 mM KCl, 1 mM MgCl2; conditions: label: 32P; G4 mixed
Description: as §1

[14] = molecular target: T1, Nucleolin (MBP fusion, lacking …); assay: filter; Bmax 35%; 60 mM KCl, 1 mM MgCl2; conditions: label: 32P; G4 motif, CD not determined
Description: as §1

[15] = molecular target: T1, Nucleolin (MBP fusion, lacking …); assay: filter; Bmax 49%; 60 mM KCl, 1 mM MgCl2; conditions: label: 32P; G4 motif, CD not determined
Description: as §1

[16] = molecular target: T1, Nucleolin (MBP fusion, lacking …); assay: filter; Bmax 31%; 60 mM KCl, 1 mM MgCl2; conditions: label: 32P; G4 motif, CD not determined
Description: as §1

[17] = molecular target: T1, Nucleolin (MBP fusion, lacking …); assay: filter; Bmax 43%; 60 mM KCl, 1 mM MgCl2; conditions: label: 32P; G4 motif, CD not determined
Description: as §1

[18] = molecular target: T1, Nucleolin (MBP fusion, lacking …); assay: filter; Bmax 65%; 60 mM KCl, 1 mM MgCl2; conditions: label: 32P; G4 motif, CD not determined
Description: as §1

[19] = molecular target: T1, Nucleolin (MBP fusion, lacking …); assay: filter; Bmax 82%; 60 mM KCl, 1 mM MgCl2; conditions: label: 32P; G4 motif, CD not determined
Description: as §1

[20] = molecular target: T1, Nucleolin (MBP fusion, lacking …); assay: filter; Bmax 52%; 60 mM KCl, 1 mM MgCl2; conditions: label: 32P; G4 motif, CD not determined
Description: as §1

[21] = molecular target: T1, Nucleolin (MBP fusion, lacking …); assay: filter; Bmax 26%; 60 mM KCl, 1 mM MgCl2; conditions: label: 32P; G4 mixed
Description: as §1

[22] = molecular target: T1, Nucleolin (MBP fusion, lacking …); assay: filter; Bmax 47%; 60 mM KCl, 1 mM MgCl2; conditions: label: 32P
Description: as §1

[23] = molecular target: T1, Nucleolin (MBP fusion, lacking …); assay: filter; Bmax 33%; 60 mM KCl, 1 mM MgCl2; conditions: label: 32P; G4 parallel
Description: as §1

T1 sequence (P19338 284-710, one chain of several): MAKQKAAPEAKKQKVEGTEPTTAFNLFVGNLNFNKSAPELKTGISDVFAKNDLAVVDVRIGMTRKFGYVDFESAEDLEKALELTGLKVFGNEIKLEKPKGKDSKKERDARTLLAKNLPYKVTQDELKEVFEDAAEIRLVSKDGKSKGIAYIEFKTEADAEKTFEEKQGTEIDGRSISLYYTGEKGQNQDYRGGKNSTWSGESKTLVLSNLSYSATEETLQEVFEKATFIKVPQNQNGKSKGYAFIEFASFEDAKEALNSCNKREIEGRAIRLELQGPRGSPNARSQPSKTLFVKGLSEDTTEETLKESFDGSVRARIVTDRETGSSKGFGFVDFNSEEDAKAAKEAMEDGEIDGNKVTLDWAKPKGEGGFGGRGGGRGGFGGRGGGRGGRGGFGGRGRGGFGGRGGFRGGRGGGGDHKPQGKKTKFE

Binder: GGGTGGACGGGGGGGCCTGGTGGGG (structured_DNA) [1196NT]
- Kd [1]: 4.2 nM

Binder: GGGTCGGGGGGTGGGGCCCGGGCCGGGG (structured_DNA) [2957NT]
- Kd [2]: 2.7 nM

B1: 8762NT (structured_DNA)
DNA: CGGAGGGCGCGCGGGTCGGGGCGGCGGCGGCGGCGGCGGTGGCGGCGGCGGCGGGGGCGGCGGG
- Kd [3]: 0.3 nM

Binder: GGGGCGCGGCGGGGGGAGAAGGGTCGGGGCGGCAGGGG (structured_DNA) [11028NT]
- Kd ([4]; G4 mixed): 2.7 nM

Binder: GGGGTGGGGGGGAGGG (structured_DNA) [13079NT]
- Kd [5]: 2.6 nM

Binder: GGGCCGGGACGGGGTCCGGGG (structured_DNA) [13173NT]
- Kd ([6]; G4 mixed): > 30 nM

Binder: AGGGACGCCTGGGGAAGGGAGGGGG (structured_DNA) [1310T]
- Kd ([7]; G4 motif, CD not determined): 4.4 nM

B2: 2160T (structured_DNA)
DNA: AGGGCGGCGGGCGGGGAAGAGGGCACAGACGGGCGAGGGCCGGGGACCGCGAGGGCAAGGGCACCCGGG
- Kd [8]: 0.7 nM

Binder: AGGGACCGGTGGGGCCGGGGCGGGG (structured_DNA) [3468T]
- Kd [9]: 2.4 nM

Binder: AGGGCGGACGGGAGGGAGCGAGCGGGCGCGGGGG (structured_DNA) [3500T]
- Kd [10]: 1.1 nM

Binder: GGGCCCGCGGGGGGAGGGGGAAGGGGCGGG (structured_DNA) [6914T]
- Kd ([7]; G4 mixed): 0.8 nM

Binder: AGGGAGGGAGACGGGGGGG (structured_DNA) [5701NT]
- Kd [11]: 3.2 nM

Binder: AGGGGCGGCGGGGAGGAGGAGGGGCGCGGGG (structured_DNA) [7370T]
- Kd [12]: 1.1 nM

Binder: AGGGCGGGCGGCGGGGCGGG (structured_DNA) [7499T]
- Kd [12]: 1.1 nM

Binder: GGGAGGGGCACGGGCCGGGGGCGGGACGGG (structured_DNA) [7733T]
- Kd [13]: 0.8 nM

B3: 8440T (structured_DNA)
DNA: AGGGGCGGCGGGGGAAGGGAGGGCGGGTGGAGGGGTCGGGAGGAACGGGGGGCGGG
- Kd [14]: 0.3 nM

Binder: AGGGAGGACGCGGGGCCGGGGGGCGGAGACGGG (structured_DNA) [8716T]
- Kd [15]: 3.1 nM

Binder: AGGGGGTGGGCGCCGGGAGGGGGG (structured_DNA) [8904T]
- Kd [16]: 0.4 nM

Binder: AGGGGCGGGGGCGCGGGGAGGAGGGGTGGG (structured_DNA) [9024T]
- Kd [17]: 0.3 nM

Binder: AGGGGCTCCGGGGGCGGGGAGCGGGGCGTGGGCGGGAGGAGGGG (structured_DNA) [10137T]
- Kd [18]: 0.4 nM

B4: 10885T (structured_DNA)
DNA: AGGGTGGGGCGGGGGAGGGCCGCGAGGGGGGTGCCCCGGGCGTGGGGGGGG
- Kd [19]: 0.2 nM

Binder: AGGGCGCGGGGTGGGGAGGG (structured_DNA) [10951T]
- Kd [20]: 0.2 nM

Binder: GGGTCGGGGGCGGTGGTGGGCCCGCGGGGG (structured_DNA) [6183NT]
- Kd [21]: 2.2 nM

Binder: AGGGGAGGGGGGAGGACGGGGAGCGGGGG (structured_DNA) [10985T]
- Kd [14]: 0.2 nM

Binder: AGGGGGGAACGGGGGGCGGACGGGGCCGGGGGGGTAGGGCGGGGGG (structured_DNA) [11345T]
- Kd ([4]; G4 motif, CD not determined): 0.3 nM

Binder: AGGGGACACCGGGGGGGCGCCGGGGG (structured_DNA) [11888T]
- Kd ([22]; G4 motif, CD not determined): 0.2 nM

Binder: AGGGACGGGGACCGGCGGGCCACGGGG (structured_DNA) [13236T]
- Kd ([6]; G4 motif, CD not determined): > 30 nM

Binder: AGGGTTAGGGTTAGGGTTAGGG (structured_DNA) [hTel]
- Kd ([6]; G4 antiparallel): > 30 nM

Binder: TGGGGAGGGTGGGGAGGGTGGGGAATT (structured_DNA) [Myc27]
- Kd [23]: 4.4 nM

Binder: GGAGGAGGAGGA (structured_DNA) [GGA4]
- Kd ([6]; G4 parallel): > 30 nM

Binder: GGGGGCGGGAACCCCCGGGCGCCTGTGGG (structured_DNA) [6374NT]
- Kd ([22]; G4 mixed): 5.5 nM
